The values that follow are results of earlier work, collected in article PMC7640956.

The Kd is the free concentration of one partner at which half of the binding sites on the other are occupied at equilibrium, for simple one-to-one binding.

This data set has as its target Spike RBD (Severe acute respiratory syndrome coronavirus 2) (UniProt P0DTC2).

Turning to “ACE2-derived 23-mer peptide (from UniProt Q9BYF1)”, the Kd is 47 nM.
